According to the nanobody polyreactivity screen of Harvey et al. (2022):

Assay: yeast display, Sf9 membrane polyspecificity reagent, FACS + sequencing; frameworks hold sequencing errors
How it was run: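 Genes from sorted yeast were amplified by colony PCR, read by MiSeq 2 × 250 sequencing and filtered on CDR length. These cells carried a synthetic nanobody library in Saccharomyces cerevisiae BJ5465 and were sorted by FACS into low and high (top ~1%) gates on anti-HA and streptavidin fluorescence. Polyreactivity is labelled according to the gate of origin.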

Row | Sequence | polyreactivity (PSR sort gate)
1 | QVQLVESGGGLVQAGGSLRLSCAASGLTIFVNAMGWYRQAPGKERELVATISCGGSTYYADSVKGRFTISRDNANNTVYLQLNSLKPEDSSVFYCNAADVGGQWWYPYTYNYWGQGTQVTVSS | low polyreactivity
2 | QVQLVESGGGLVQAVGSLRLSCAASGFTFRGYDMRSYRQAPGKQRELVAGITWGDDSTYYADSVKRRFTISRDKAKNTGYLQMNILKPEDTAVYYCAAEYVFHDVLWWIYGYWRQGTQVTVSS | high polyreactivity
3 | QVQLVESGGGLVQAGGSLRLSCAASGFTFYYNAMGWYRQAPGKERELVAIRFRGGNTYYADSVKGRFTISRDNAKNTVYLQMNSLKPEDTAVYYCNADDRGSTYVEFDYWGQGTQVTVSS | low polyreactivity
4 | QVQLVESGGGLVQAGGSLRLSCAASGSTFRTYAMGWYRQAPGKERELVAVISASGGSTYYADSVKGRFTISRDNAKNTVYLQMNSLKPEDTAVYYCAVAYSRGRYYYWGQGTQVTVSS | high polyreactivity
5 | QVQLVESGGGLVQAGGSLRLSCAASGIIFAYYARRWYRHAPGKERELVAAISWSGTSTYYADSVKGRFTISRDNAKNTVYLQMNSLKPEDTAVYYCNAYGLYSDMDYWGQGTQVTVSS | high polyreactivity
6 | QVQLVESGGGLVQAGGSLRLSCAASGSIFAKNAMGWYRPAPGTERELVAGIDFSGGSTYYADSVKGRFTISGDNAKNTVYLQMNSLKAEDTAVYYCAADWAYKYELDYWGQGNQVTVSS | low polyreactivity
7 | QVQLVESGGGLVQAGGSLRLSCAASGYTSNMGWYRQAPGKERELVAAITSGGDGTYYADSVKGRFTISRDNAKNTVYLQMNSLKPEDTAVYYCAKRGRDYNYGRAGYYWGQGTQVTVSS | low polyreactivity
8 | QVQLVESGGGLVQAGGSLRLSCAASGRTFYYYAMGRYRQAPGKEREFVASISYSGARTYYADSVKGRFTISRDNAKNTVYLQMNSLKPEDTAVYYCAASWRSGRGTYGYWGQGTQVTVSS | high polyreactivity
9 | QVQLVESGGGLVQAGGSLRLSCAASGSIFYVKTMGWSRQAPGKEREFLAAINYSGDSTYADSVKGRFTISRDNAKNTVYLQMIRLKPEDTAVYYCNAVPVRYLRGRNGHDYWGQGTQVTVSS | high polyreactivity
10 | QVQLVESGGGLVQAGGSLRLTCAASGRILLVNAMGWSRQAPGKERELVAAITSGGSTNYADSVKGRFTISRDNAKNTVYFQMNSLKPEDTAVYFCAATITLYRSRGRYGYWGQGTQVTASS | high polyreactivity
11 | QVQLVESGGGLVQAGGSLRLSCAASGRIFGTNAMGWYRQAPGKERELVADITSGGSTNYADSVKGRFTISRDNAKNTVYLQMNSLKPEDTAVYYCAADVIADLRWYRDEYWGQGTQLTVSS | low polyreactivity
12 | QVQLVESGGGIVQAGGSLRLSCAASGRIFLTNAMGWYRQAPGKERELVADISRGGSTYPDSVKGRFTISRDNAKNTVYLQMNSLKPEDTAVYYCAADEYSPGDSRTRYDYWGQGTQVTVSS | low polyreactivity
13 | QVQLVDSGGGLVQAGGSLRLSCAASGSTFLYHAMGWYRQAPGKERELLAAINSGTSTTYADSVKGRFTISRDNAKNRVYLQMNSLNPEDTAVYYCAADYYYVNYYGYYTLFDFDYWGQGTQVTVSS | low polyreactivity
14 | QDQLVESGGGLVQAGGSHRLSCAASGSIFYRNAMGWFRQAPGKERELVAAISARGGRTNYADSVKGRFTISRDNAKNTVYLQMTSLKPEDTAVYYCNTADSWYHRSQAYDYWGQGTQVTVSS | high polyreactivity
15 | QLQLVESGGGLVQAGGSLRLTCAASGSIFNDNAMGWYRPAPVKERELVAPINSDGSTYYADSVKGRFTISRDNAKNTVYLQMNSLKPEDTAVYYCNADTLLDNFTWDADGYDYWGQGTHVTVSS | low polyreactivity
16 | QVQLVESGGGLVQAGGSLRLSCAASGRTFYPNAMGWYRQAPGKERELVAAITWRSGSTYYADSVKGRFTISRDNAKNTVYLQMNSLKPEDTAVYYCNADSDYPYYPGKFDYWGQGTQVTVSS | low polyreactivity
17 | QVQLVESGGGLVQAGGSLRLSCAASGSIFDFYAMGWYRQAPGKEREFVAAITQSGASTYADSVKGRFTISRDNAKNTVYLQMNSLKPEDTAVYYCNADSGGRGAPTSTYDYWGQGSQVTVSS | low polyreactivity
